Results on twelve molecules are retold here after patent US20220356245A1 (FORTY SEVEN, published 2022).

The target of experiment [1] is T1, human CD47 (hCD47) expressed on cells (human, UniProt Q08722 19-323).
T1 construct: Transfected CHO cells or endogenous CD47 of human cells; also called CHO-hCD47; CD47 on Raji cells
Briefly: flow cytometry, Raji cells, competition with His-hSIRPα.
Description: The percent inhibition was plotted against antibody concentration and the IC50 values were calculated by using a nonlinear regression analysis model of the GraphPad Prism software.

Experiment [2] concerns the target T1, human CD47 (hCD47) expressed on cells. As to the kind of experiment: flow cytometry, hCD47-CHO cells, competition with His-hSIRPα.
Description: Human CD47-transfected cells (3×10⁵ cells/well of 96-well plate) were first incubated at +4° C. for 30 minutes with serial dilutions of anti-CD47 antibodies or isotype control antibody (in mIgG2a or mIgG1 format). […] The percentage inhibition was plotted against antibody concentration and the IC50 values were calculated using a nonlinear regression analysis model of the GraphPad Prism software.
Experiment [3] shares this target. Briefly: flow cytometry, Raji cells.
Experiment [4] shares this target. Briefly: cell-based or functional assay.
For experiment [5], the target named is T2, hu-sCD47-6His; extracellular domain of human CD47 antigen with 6His-tag (human).
T2 construct: also called hCD47-his; soluble hCD47
As to the kind of experiment: SPR Biacore T200, antibody captured, hCD47-his analyte.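 Also: antibodies captured on anti-IgG (Fc) CM5 chip, five sequential 10 min antigen injections at rising concentrations, reference flow cell and antigen-free cycle as controls, 1:1 model fit.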

Experiment [6] concerns the target T2, hu-sCD47-6His; extracellular domain of …. As to the kind of experiment: SPR Biacore.
Excerpt: (§1) An anti-human or anti-mouse IgG (Fc) was first immobilized on the surface of Serie S Sensor Chips CM5 using the human or mouse antibody capture and amine coupling kits, following the manufacturer's instructions (GE Healthcare). […] The mouse, chimerized or humanized antibodies to be tested were then captured onto the appropriate anti-mouse or anti-human IgG surface in all flow cells except flow cell 1 used as control, at concentration and contact time adjusted so that ˜300 RU were captured on the surface. Binding kinetics were studied by passing increasing concentrations of hCD47-his in a series of five 10 minute injections through all flow cells at a rate of 30 μL/min. […] Following the final injection, buffer was passed across each flow cell for 60 minutes (mouse) or 30 minutes (human) to monitor the dissociation of bound antigen. Regeneration of the binding surface was carried out at the end of the cycle by flowing 3 M MgCl₂ for 60 s at 20 μL/min followed by 10 mM glycine-HCl, pH 1.7 for 180 s at 10 μl/min (for human) or by flowing 10 mM glycine-HCl, ph 1.7 for 360 s at 10 μl/min (for mouse). A second cycle with the same antibodies but no antigen was run as a control. Kinetics binding constants were estimated by non-linear fitting of the sensogram data to the 1:1 binding model provided by the Biacore T200 evaluation software.
The target in experiment [7] is T1, human CD47 (hCD47) expressed on cells. As to the kind of experiment: flow cytometry on Raji cells, hIgG4 format, delta MFI.
Experiment [8] has the same target. Briefly: flow cytometry, Raji cells. This is another data set of the same source.
The target is the same in experiment [9]. Briefly: flow cytometry on Raji cells, hIgG4 format: inhibition of hSIRPα binding to hCD47.
For experiment [10] the target is unchanged. Briefly: flow cytometry, Raji cells, competition with hSIRPα.
Experiment [11] shares this target. The description is as above. The source holds these as a separate data set.
Experiment [12] has as its target T2, hu-sCD47-6His; extracellular domain of …. As to the kind of experiment: SPR Biacore; head read as x 10^-4.
Experiment [13] deals with T3, mouse CD47 (mCD47) expressed on CHO cells (mouse, UniProt Q61735 19-303).
T3 construct: whole, on cells; also called CHO-mCD47
T3 sequence (looked up): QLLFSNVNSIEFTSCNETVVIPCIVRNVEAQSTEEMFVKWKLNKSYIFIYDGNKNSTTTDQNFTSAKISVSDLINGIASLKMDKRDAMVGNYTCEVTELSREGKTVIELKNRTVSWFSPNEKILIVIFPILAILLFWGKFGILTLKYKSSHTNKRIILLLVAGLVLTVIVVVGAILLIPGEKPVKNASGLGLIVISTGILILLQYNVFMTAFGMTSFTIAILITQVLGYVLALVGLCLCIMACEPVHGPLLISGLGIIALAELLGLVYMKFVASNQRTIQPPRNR
Briefly: flow cytometry, CHO-mCD47 cells (not shown).

The target of experiment [14] is T2, hu-sCD47-6His; extracellular domain of …. As to the kind of experiment: SPR Biacore. The source holds these as a separate data set.
Excerpt: as §1
Experiment [15] addresses T1, human CD47 (hCD47) expressed on cells. As to the kind of experiment: flow cytometry, Raji cells. This is another data set of the same source.
Experiment [16] has as its target T2, hu-sCD47-6His; extracellular domain of …. Briefly: SPR Biacore. The source holds these as a separate data set.
Excerpt: as §1
Experiment [17] has as its target T1, human CD47 (hCD47) expressed on cells. As to the kind of experiment: flow cytometry, Raji cells, competition with hSIRPα. The source holds these as a separate data set.
Experiment [18] shares this target. As to the kind of experiment: flow cytometry, Raji cells. This is another data set of the same source.
Experiment [19] concerns the target T3, mouse CD47 (mCD47) expressed on CHO …. As to the kind of experiment: flow cytometry, CHO-mCD47 cells.

Where two headings read alike, the source gives them in different places.

B1: Candidate 33, chimeric hIgG format (hIgG1 or hIgG4) (antibody, V domains shown)
VH: LVQLQQSGPELVKPGTSVKISCRSSGYTFTDYYINWVQQRPGQGLEWVGWIFPGSGLTYYNKKFKGKATLSVDKSSNTAYMLLSSLTSEDSAVYFCARPYYGSRWDYTMDYWGQGTSVTVSS
VL: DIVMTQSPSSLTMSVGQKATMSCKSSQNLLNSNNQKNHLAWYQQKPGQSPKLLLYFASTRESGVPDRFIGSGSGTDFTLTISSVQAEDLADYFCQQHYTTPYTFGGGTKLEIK
notes: also called Candidate 33 (hIgG format)
For the molecule B1, in experiment [1], the IC50 stood at 0.11 µg/mL.

B2: 2A1 (mouse antibody from Inhibrx) (antibody, V domains shown)
VH: EVQLQQSGAELVRSGASVKLSCTASGFNIKDYYLHWVKQRPEQGLEWIGWIDPDNGDTEFAPKFQGKATMTADTSSNTAYLQLSSLTSEDTAVYYCNAAYGSSSYPMDYWGQGTSVTV
VL: DIKMTQSPSSLYASLGERVTITCKASQDIHRYLSWFQQKPGKSPKILIYRANRLVDGVPSRFSGSGSGQDYSLTISSLEYEDMGIYYCLQYDEFPYTFGGGTKLEMK
B2: in experiment [2], the IC50 is 0.739 µg/mL. The same molecule gave a concentration for a half-maximal effect (EC50) in [3] of 0.058 µg/mL. Besides, the “Phagocytic index, Raji cells and human macrophages, antibody at 0.125 µg/mL” value (“Phagocytic index” below) in experiment [4] is 113 Raji cells ingested per 100 macrophages. In experiment [5], binding was characterised by a dissociation constant (Kd) of 0.127 nM, the dissociation rate constant (koff) is 4.99e-05 s⁻¹ and the kon was found to be 401000 M⁻¹ s⁻¹.

B3: h20-H3-L3Y (candidate 20.28), hIgG4-S228P (antibody, V domains shown)
VH: QVQLVQSGAEVKKPGASVKVSCKASGYSFTDYYINWVRQAPGQGLEWMGRIYPGIGNTYYNKKFKGRVTVTRDTSISTAHMELSSLRSDDTAVYYCARGHYGRGMDYWGQGTAVTVSS
VL: EIVLTQSPDSLAVSLGERATINCKSSQSLLNSIDQKNYLAWYQQKAGQSPKLLIYYASTKESGVPDRFSGSGSGTDFTLTIDSLQAEDVAVYYCQQHYSTPWTFGGGTKVEIKR
notes: also called H20-VH3-VL3,Y
Turning to B3, in experiment [6], binding was put at a Kd of 2.32 nM, the koff was 0.000573 s⁻¹ and the association rate constant (kon) was found to be 264000 M⁻¹ s⁻¹. Moreover, the “EC50 (read off the curve)” value in [7] was ~0.1 µg/mL. In addition, in experiment [8], the EC50 turned out to be 0.117 µg/mL. Also, the “IC50 (read off the curve)” value in [9] is ~0.3 µg/mL. In addition, the half-inhibitory concentration (IC50) in experiment [10] came to 0.17 µg/mL.

B4: h20-VH3-VL3 (candidate 20.13) (antibody, human IgG4 S228P, kappa, V domains shown)
VH: QVQLVQSGAEVKKPGASVKVSCKASGYSFTDYYINWVRQAPGQGLEWMGRIYPGIGNTYYNKKFKGRVTVTRDTSISTAHMELSSLRSDDTAVYYCARGHYGRGMDYWGQGTAVTVSS
VL: EIVLTQSPDSLAVSLGERATINCKSSQSLLNSIDQKNYLAWYQQKAGQSPKLLIYFASTKESGVPDRFSGSGSGTDFTLTIDSLQAEDVAVYYCQQHYSTPWTFGGGTKVEIKR
notes: hIgG4-S228P/kappa; also called h20-H3-L3
B4 yielded a half-inhibitory concentration (IC50) in experiment [11] of 0.173 µg/mL. This molecule also had an off-rate (koff) in experiment [12] of 0.000594 s⁻¹. In [7], the concentration giving a half-maximal response (EC50 (read off the curve)) was ~0.08 µg/mL. The binding result in [13] is recorded as “no binding”. In experiment [14], this molecule showed an equilibrium dissociation constant (Kd) of 3.05 nM and a kon of 214000 M⁻¹ s⁻¹. In addition, the “IC50 (read off the curve)” value in [9] is ~0.2 µg/mL. Besides, the concentration giving a half-maximal response (EC50) in experiment [15] was 0.147 µg/mL.

B5: Candidate 20, chimeric hIgG format (hIgG1 or hIgG4) (antibody, V domains shown)
VH: QVQLKQSGAELVRPGASVKLSCKASGYSFTDYYINWVKQRPGQGLEWIARIYPGIGNTYYNKKFKGKATLTAEKSSSTAYMQLNSLTSEDSAVYFCARGHYGRGMDYWGQGTSVTVSS
VL: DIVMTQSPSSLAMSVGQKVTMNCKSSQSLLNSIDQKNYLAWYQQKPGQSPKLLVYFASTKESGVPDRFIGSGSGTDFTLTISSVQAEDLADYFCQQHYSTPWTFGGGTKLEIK
notes: also called Candidate 20 (hIgG format)
Molecule B5 had an IC50 in experiment [1] of 0.11 µg/mL.

B6: h22-VH3-VL3 (candidate 22.11) (antibody, human IgG4 S228P, kappa, V domains shown)
VH: QVQLQESGAEVKKPGASVKVSCKASGYTFTTYWMHWVRQAPGQGLEWMGMIHPNSGTTNYNEKFKSRVTMTRDTSTSTVYMELSSLRSEDTAVYYCTRSHYYDGHFSYWGQGTLVTVSS
VL: EIVLTQSPDSLAVSLGERATINCKSSQSLLNSRTRKNYLAWYQQKAGQSPKLLIYWASTRESGVPDRFSGSGSGTDFTLTIDSLQAEDVAVYYCKQSYNLWTFGGGTKVEIKR
notes: hIgG4-S228P/kappa
In experiment [16], B6 showed a Kd of 10.9 nM, a koff of 0.000306 s⁻¹ and a kon of 28400 M⁻¹ s⁻¹. In experiment [17], the concentration for half-maximal inhibition (IC50) was found to be 0.096 µg/mL. The same molecule came in with an EC50 in experiment [18] of 0.139 µg/mL.

B7: h22-VH4-VL4 (candidate 22.16) (antibody, human IgG4 S228P, kappa, V domains shown)
VH: QVQLVQSGAEVKKPGASVKVSCKGSGYTFTTYWMHWVRQAPGQGLEWMGMIHPNSGTTNYNEKFKSRVTLTRDTSISTAYMELSRLTSDDTAVYYCTRSHYYDGHFSYWGQGTMVTVSS
VL: DIVMTQSPDSLPVSLGERATINCKSSQSLLNSRTRKNYLAWYQQKPGQPPKLLIYWASTRESGVPDRFTGSGSGTDFTLTISALQAEDVAVYYCKQSYNLWTFGQGTRLEIKR
notes: hIgG4-S228P/kappa
With B7, in experiment [16], the affinity, expressed as Kd, was 9.37 nM; the koff came out at 0.000263 s⁻¹; the kon was 28200 M⁻¹ s⁻¹. Also, in [17], the concentration for half-maximal inhibition (IC50) is 0.116 µg/mL. Also, in [18], a half-maximal effect (EC50) was put at 0.184 µg/mL.

B8: h22-VH4-VL3 (candidate 22.15) (antibody, human IgG4 S228P, kappa, V domains shown)
VH: QVQLVQSGAEVKKPGASVKVSCKGSGYTFTTYWMHWVRQAPGQGLEWMGMIHPNSGTTNYNEKFKSRVTLTRDTSISTAYMELSRLTSDDTAVYYCTRSHYYDGHFSYWGQGTMVTVSS
VL: EIVLTQSPDSLAVSLGERATINCKSSQSLLNSRTRKNYLAWYQQKAGQSPKLLIYWASTRESGVPDRFSGSGSGTDFTLTIDSLQAEDVAVYYCKQSYNLWTFGGGTKVEIKR
notes: hIgG4-S228P/kappa
Consider B8, for which, in experiment [16], binding was put at a Kd of 12.1 nM, the koff is 0.000351 s⁻¹ and the kon worked out at 29100 M⁻¹ s⁻¹. The same molecule had an IC50 in [17] of 0.098 µg/mL. Also, the response in [18] was half-maximal at 0.124 µg/mL (EC50).

B9: h22-VH3-VL4 (candidate 22.12) (antibody, human IgG4 S228P, kappa, V domains shown)
VH: QVQLQESGAEVKKPGASVKVSCKASGYTFTTYWMHWVRQAPGQGLEWMGMIHPNSGTTNYNEKFKSRVTMTRDTSTSTVYMELSSLRSEDTAVYYCTRSHYYDGHFSYWGQGTLVTVSS
VL: DIVMTQSPDSLPVSLGERATINCKSSQSLLNSRTRKNYLAWYQQKPGQPPKLLIYWASTRESGVPDRFTGSGSGTDFTLTISALQAEDVAVYYCKQSYNLWTFGQGTRLEIKR
notes: hIgG4-S228P/kappa
For the molecule B9, in experiment [16], the Kd is 10 nM, the koff is 0.000252 s⁻¹ and the kon was 25200 M⁻¹ s⁻¹. Moreover, the concentration for half-maximal inhibition (IC50) in experiment [17] stood at 0.116 µg/mL. Moreover, the EC50 in [18] is 0.108 µg/mL.

B10: Candidate 22, chimeric hIgG format (hIgG1 or hIgG4) (antibody, V domains shown)
VH: QVQLQQPGAELVKPGASVKLSCKASGYTFTTYWMHWVKQRPGQGLEWIGMIHPNSGTTNYNEKFKSKATLTVDKSSSSTYMQLSSLTSEDSAVYYCTRSHYYDGHFSYWGQGTLVTVSA
VL: DIVMSQSPSSLAVSAGEKVTMSCKSSQSLLNSRTRKNYLAWYQQKPGQSPKLLIYWASTRESGVPDRFTGSGSGTDFTLTISSVQAEDLAVYYCKQSYNLWTFGGGTRLEIK
notes: also called Candidate 22 (hIgG format)
For the molecule B10, the IC50 in experiment [1] was found to be 0.233 µg/mL.

B11: Candidate 14 (VT008-AL6-14G1-16K1), mouse IgG (antibody, V domains shown)
VH: QVQLQQPGAELVKPGASLRVSCKASGYTFTNYWMYWVRQRPGRGLEWIGWIDPNSGGTKYNEKFKSKATLTVDKPSSTAYMQLSSLTSEDSAVYNCARGGYTMDYWGQGTSVTVSS
VL: DVVMTQTPLSLPVSLGDQASISCRASQSLVHSNGNTYLHWYLQKPGQSPKLLIYKVSNRFSGVPDRFSGSGSGTDFTLKISRVEAEDLGVYFCSQSTHVPLTFGAGTKLELK
notes: Recombinant mouse IgG2a or mIgG1 format, by assay
In experiment [2], B11 gave an IC50 of 0.737 µg/mL. Moreover, the concentration giving a half-maximal response (EC50) in experiment [3] is 0.055 µg/mL. In experiment [4], the “Phagocytic index” value is 78.9 Raji cells ingested per 100 macrophages. In addition, in [5], the Kd is 3.85 nM, the koff was 0.00337 s⁻¹ and the kon came to 874000 M⁻¹ s⁻¹.

B12: Candidate 7 (VT008-AL5-10G7-10K7), mouse IgG (antibody, V domains shown)
VH: QVQLQQPGAELVMPGSSVKLSCKTSGYTFTKYWMHWVKRRPGQGLEWIGEINPSDTYTNYNQKFKGKSTLTVDKSSSTAYMQLSSLTSEDSAVYFCARVATMVARGFAYWGQGTLVTVSA
VL: DIVMTQSHKFMSTSVGDRVSITCKASQDVSGAVVWYQEKPGQSPNLLIYLATYRYTGVPDRFTGSGSGTDFTLTIRSVQAEDMAVYYCQQYYSIPWTFGGGTKLEIK
B12 showed an IC50 in experiment [2] of 0.657 µg/mL. Further, the EC50 in experiment [3] worked out at 0.058 µg/mL. Further, the binding result in experiment [19] was “no binding (tested: 7.3 µg/mL highest concentration)”. Moreover, the “Phagocytic index” value in experiment [4] is 124 Raji cells ingested per 100 macrophages. In [5], this molecule registered an equilibrium dissociation constant (Kd) of 1.94 nM, a koff of 0.00037 s⁻¹ and an association rate constant (kon) of 190000 M⁻¹ s⁻¹.
